Where a chain is given by its changes, count along the chain named.
T1: FcγRIIa(R) (human, UniProt P12318 34-217)
T1 construct: extracellular domain; also called 2aR
T1 sequence: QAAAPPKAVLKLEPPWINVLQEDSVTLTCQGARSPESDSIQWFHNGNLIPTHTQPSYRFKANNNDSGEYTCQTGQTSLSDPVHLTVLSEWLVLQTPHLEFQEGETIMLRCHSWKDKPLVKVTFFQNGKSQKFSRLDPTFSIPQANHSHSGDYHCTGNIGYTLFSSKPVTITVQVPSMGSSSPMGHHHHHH

T2: FcγRIIa(H) (human, UniProt P12318 34-217)
T2 construct: extracellular domain; also called 2aH
T2 sequence: T1 sequence with R134H

T3: FcγRIIb (human, UniProt P31994 43-217)
T3 construct: extracellular domain; also called 2b
T3 sequence: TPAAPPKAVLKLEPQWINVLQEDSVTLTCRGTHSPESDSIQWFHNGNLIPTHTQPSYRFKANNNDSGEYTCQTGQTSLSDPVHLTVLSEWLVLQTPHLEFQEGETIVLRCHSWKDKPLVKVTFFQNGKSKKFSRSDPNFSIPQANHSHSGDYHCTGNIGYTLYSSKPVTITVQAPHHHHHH

B1: GpH7-A5/GpH7-B3 variant A327_10E/GpL16-k0 (antibody, human IgG1, kappa)
heavy 1: not shown
heavy 2: not shown
light: DIVMTQSPLSLPVTPGEPASISCQASESLVHSNRNTYLHWYLQKPGQSPQLLIYKVSNRFSGVPDRFSGSGSGTDFTLKISRVEAEDVGVYYCSQNTHVPPTFGQGTKVEIERTVAAPSVFIFPPSDEQLKSGTASVVCLLNNFYPREAKVQWKVDNALQSGNSQESVTEQDSKDSTYSLSSTLTLSKADYEKHKVYACEVTHQGLSSPVTKSFNRGEC
notes: He Ab: heterodimerized IgG1, one H chain mutated
B2: GpH7-A5/GpH7-B3 variant A330_01G/GpL16-k0 (antibody, human IgG1, kappa)
heavy 1: not shown
heavy 2: not shown
light: B1 light
notes: as for B1
B3: GpH7-A5/GpH7-B3 variant A330_09D/GpL16-k0 (antibody, human IgG1, kappa)
heavy 1: not shown
heavy 2: not shown
light: B1 light
notes: as for B1
B4: GpH7-A5/GpH7-B3 variant A330_07I/GpL16-k0 (antibody, human IgG1, kappa)
heavy 1: not shown
heavy 2: not shown
light: B1 light
notes: as for B1
B5: GpH7-A5/GpH7-B3 variant K326_12R/GpL16-k0 (antibody, human IgG1, kappa)
heavy 1: not shown
heavy 2: not shown
light: B1 light
notes: as for B1
B6: GpH7-A5/GpH7-B3 variant K326_04F/GpL16-k0 (antibody, human IgG1, kappa)
heavy 1: not shown
heavy 2: not shown
light: B1 light
notes: as for B1
B7: GpH7-A5/GpH7-B3 variant A327_19Q/GpL16-k0 (antibody, human IgG1, kappa)
heavy 1: not shown
heavy 2: not shown
light: B1 light
notes: as for B1
B8: GpH7-A5/GpH7-B3 variant A330_10E/GpL16-k0 (antibody, human IgG1, kappa)
heavy 1: not shown
heavy 2: not shown
light: B1 light
notes: as for B1
B9: GpH7-A5/GpH7-B3 variant K326_08L/GpL16-k0 (antibody, human IgG1, kappa)
heavy 1: not shown
heavy 2: not shown
light: B1 light
notes: as for B1
B10: GpH7-A5/GpH7-B3 variant K326_01G/GpL16-k0 (antibody, human IgG1, kappa)
heavy 1: not shown
heavy 2: not shown
light: B1 light
notes: as for B1
B11: GpH7-A5/GpH7-B3 variant A330_04F/GpL16-k0 (antibody, human IgG1, kappa)
heavy 1: not shown
heavy 2: not shown
light: B1 light
notes: as for B1
B12: GpH7-A5/GpH7-B3 variant A327_13S/GpL16-k0 (antibody, human IgG1, kappa)
heavy 1: not shown
heavy 2: not shown
light: B1 light
notes: as for B1
B13: GpH7-A5/GpH7-B3 variant K326_03V/GpL16-k0 (antibody, human IgG1, kappa)
heavy 1: not shown
heavy 2: not shown
light: B1 light
notes: as for B1
B14: GpH7-A5/GpH7-B3 variant K326_02A/GpL16-k0 (antibody, human IgG1, kappa)
heavy 1: not shown
heavy 2: not shown
light: B1 light
notes: as for B1
B15: GpH7-A5/GpH7-B3 variant K326_10E/GpL16-k0 (antibody, human IgG1, kappa)
heavy 1: not shown
heavy 2: not shown
light: B1 light
notes: as for B1
B16: GpH7-A5/GpH7-B3 variant A330_20W/GpL16-k0 (antibody, human IgG1, kappa)
heavy 1: not shown
heavy 2: not shown
light: B1 light
notes: as for B1
B17: GpH7-A5/GpH7-B3 variant K326_13S/GpL16-k0 (antibody, human IgG1, kappa)
heavy 1: not shown
heavy 2: not shown
light: B1 light
notes: as for B1
B18: GpH7-A5/GpH7-B3 variant K326_07I/GpL16-k0 (antibody, human IgG1, kappa)
heavy 1: not shown
heavy 2: not shown
light: B1 light
notes: as for B1
B19: GpH7-A5/GpH7-B3 variant A330_19Q/GpL16-k0 (antibody, human IgG1, kappa)
heavy 1: not shown
heavy 2: not shown
light: B1 light
notes: as for B1
B20: GpH7-A5/GpH7-B3 variant K326_06M/GpL16-k0 (antibody, human IgG1, kappa)
heavy 1: not shown
heavy 2: not shown
light: B1 light
notes: as for B1
B21: GpH7-A5/GpH7-B3 variant K326_05P/GpL16-k0 (antibody, human IgG1, kappa)
heavy 1: not shown
heavy 2: not shown
light: B1 light
notes: as for B1
B22: GpH7-A5/GpH7-B3 variant A327_20W/GpL16-k0 (antibody, human IgG1, kappa)
heavy 1: not shown
heavy 2: not shown
light: B1 light
notes: as for B1
B23: GpH7-A5/GpH7-B3 variant A330_03V/GpL16-k0 (antibody, human IgG1, kappa)
heavy 1: not shown
heavy 2: not shown
light: B1 light
notes: as for B1
B24: GpH7-A5/GpH7-B3 variant A330_16H/GpL16-k0 (antibody, human IgG1, kappa)
heavy 1: not shown
heavy 2: not shown
light: B1 light
notes: as for B1
B25: GpH7-A5/GpH7-B3 variant A330_14T/GpL16-k0 (antibody, human IgG1, kappa)
heavy 1: not shown
heavy 2: not shown
light: B1 light
notes: as for B1
B26: GpH7-A5/GpH7-B3 variant A330_08L/GpL16-k0 (antibody, human IgG1, kappa)
heavy 1: not shown
heavy 2: not shown
light: B1 light
notes: as for B1
B27: GpH7-A5/GpH7-B3 variant A330_18N/GpL16-k0 (antibody, human IgG1, kappa)
heavy 1: not shown
heavy 2: not shown
light: B1 light
notes: as for B1
B28: GpH7-A5/GpH7-B3 variant K326_09D/GpL16-k0 (antibody, human IgG1, kappa)
heavy 1: not shown
heavy 2: not shown
light: B1 light
notes: as for B1
B29: GpH7-A5/GpH7-B3 variant A327_18N/GpL16-k0 (antibody, human IgG1, kappa)
heavy 1: not shown
heavy 2: not shown
light: B1 light
notes: as for B1

Tests used:
Test in all cases: SPR, relative to GpH7-A5/GpH7-B3/GpL16-k0 =100
FcγRIa = biological target: T4, FcγRIa (human, UniProt P12314 16-292)
T4 construct: extracellular domain; also called 1a
T4 sequence (P12314 other isoform, or with tags, fused parts or gaps): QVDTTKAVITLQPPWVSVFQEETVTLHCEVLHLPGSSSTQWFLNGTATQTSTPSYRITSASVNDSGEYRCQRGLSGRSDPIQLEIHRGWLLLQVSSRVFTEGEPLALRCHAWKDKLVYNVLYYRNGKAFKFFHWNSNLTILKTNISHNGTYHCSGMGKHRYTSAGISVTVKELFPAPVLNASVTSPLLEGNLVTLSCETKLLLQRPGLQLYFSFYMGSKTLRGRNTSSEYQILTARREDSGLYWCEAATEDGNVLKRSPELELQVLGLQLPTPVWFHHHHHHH

FcγRIIa(R) = biological target: T1, FcγRIIa(R)
FcγRIIa(H) = biological target: T2, FcγRIIa(H)
FcγRIIb = biological target: T3, FcγRIIb

Binder	He/Con 1a (FcγRIa) [%]	He/Con 2aR (FcγRIIa(R)) [%]	He/Con 2aH (FcγRIIa(H)) [%]	He/Con 2b (FcγRIIb) [%]
B1	106	142	108	175
B2	109	122	107	117
B3	112	79.5	67.8	62.8
B4	109	96	94.4	75.8
B5	105	98.6	105	100
B6	107	129	101	174
B7	98.5	77.7	79.6	67.5
B8	111	97.2	87.7	79.2
B9	105	131	96.5	198
B10	106	108	105	119
B11	110	112	104	105
B12	105	98.6	84.4	99
B13	107	135	101	196
B14	107	125	110	156
B15	109	142	106	224
B16	111	97.6	93.8	86
B17	106	119	110	139
B18	106	141	104	223
B19	109	117	110	103
B20	108	132	108	185
B21	106	118	103	141
B22	100	95.9	76.6	98.2
B23	109	84	86.1	59.2
B24	109	111	110	99
B25	108	107	102	87.9
B26	110	99.7	94.7	79.6
B27	110	91	88.3	71.9
B28	109	142	115	216
B29	100	114	79	141

— patent publication US20260167699A1 (Chugai, published 2026)
